Changes are numbered by the printed parent chain.
B1: 139 (antibody)
VH: QVQLVQSGSELKKPGASVKVSCKASGYTFTDYSMHWVRQAPGQGLEWMGWINTETGEPTYAQGFTGRFVFSLDTSVSTAYLQISSLKAEDTAVYYCARIPLYYYGSRYWYFDVWGQGTTVTVSS
VL: DIQMTQSPSSLSASVGDRVTITCRASENIYRNLAWYQQKPGKAPKLLVYAATNLADGVPSRFSGSGSGTDYTLTISSLQPEDFATYYCQHFWGTPWTFGQGTKVEIK
chain: ASTKGPSVFPLAPSSRSTSESTAALGCLVKDYFPEPVTVSWNSGALTSGVHTFPAVLQSSGLYSLSSVVTVPSSNFGTQTYTCNVDHKPSNTKVDKTVERKSCVECPPCPAPPAAAPSVFLFPPKPKDTLMISRTPEVTCVVVDVSHEDPEVQFNWYVDGVEVHNAKTKPREEQFNSTFRVVSVLTVVHQDWLNGKEYKCKVSNKGLPAPIEKTISKTKGQPREPQVYTLPPSREEMTKNQVSLTCLVKGFYPSDIAVEWESNGQPENNYKTTPPMLDSDGSFFLYSKLTVDKSRWQQGNVFSCSVMHEALHNHYTQKSLSLSPG
modifications: synthetic humanized antibody heavy chain variable region sequence; synthetic humanized antibody light chain variable region sequence; synthetic antibody constant region sequence
B2: 143 (antibody, V domains shown)
VH: B1 VH with V2I, E46K, Q62D, G63D, T65K
VL: B1 VL
modifications: synthetic humanized antibody heavy chain variable region sequence; synthetic humanized antibody light chain variable region sequence
B3: 138 (antibody, V domains shown)
VH: B1 VH with V2I, E46K
VL: B1 VL
modifications: synthetic humanized antibody heavy chain variable region sequence; synthetic humanized antibody light chain variable region sequence
B4: 141 (antibody, V domains shown)
VH: B1 VH with Q62D, G63D, T65K
VL: B1 VL
modifications: synthetic humanized antibody heavy chain variable region sequence; synthetic humanized antibody light chain variable region sequence
B5: 153 (antibody, V domains shown)
VH: B1 VH with E46K
VL: B1 VL with V48L, P80S
modifications: synthetic humanized antibody heavy chain variable region sequence; synthetic humanized antibody light chain variable region sequence
B6: 151 (antibody, V domains shown)
VH: B1 VH with V2I, E46K
VL: B1 VL with V48L, P80S
modifications: synthetic humanized antibody heavy chain variable region sequence; synthetic humanized antibody light chain variable region sequence
B7: 154 (antibody, V domains shown)
VH: B1 VH with Q62D, G63D, T65K
VL: B1 VL with V48L, P80S
modifications: synthetic humanized antibody heavy chain variable region sequence; synthetic humanized antibody light chain variable region sequence
B8: 145 (antibody, V domains shown)
VH: B1 VH with E46K, Q62D, G63D, T65K
VL: B1 VL with V48L, P80S
modifications: synthetic humanized antibody heavy chain variable region sequence; synthetic humanized antibody light chain variable region sequence
B9: 152 (antibody, V domains shown)
VH: B1 VH
VL: B1 VL with V48L, P80S
modifications: synthetic humanized antibody heavy chain variable region sequence; synthetic humanized antibody light chain variable region sequence
B10: 140 (antibody, V domains shown)
VH: B1 VH with E46K
VL: B1 VL
modifications: synthetic humanized antibody heavy chain variable region sequence; synthetic humanized antibody light chain variable region sequence
B11: 142 (antibody, V domains shown)
VH: B1 VH with E46K, Q62D, G63D, T65K
VL: B1 VL
modifications: synthetic humanized antibody heavy chain variable region sequence; synthetic humanized antibody light chain variable region sequence

Molecular target: T1, human EphA4 (binding to human Ephrin A5) (Homo sapiens, UniProt P54764)
T1 construct: made in house; not restated for the human SEAP-His protein
T1 sequence (P54764 20-547): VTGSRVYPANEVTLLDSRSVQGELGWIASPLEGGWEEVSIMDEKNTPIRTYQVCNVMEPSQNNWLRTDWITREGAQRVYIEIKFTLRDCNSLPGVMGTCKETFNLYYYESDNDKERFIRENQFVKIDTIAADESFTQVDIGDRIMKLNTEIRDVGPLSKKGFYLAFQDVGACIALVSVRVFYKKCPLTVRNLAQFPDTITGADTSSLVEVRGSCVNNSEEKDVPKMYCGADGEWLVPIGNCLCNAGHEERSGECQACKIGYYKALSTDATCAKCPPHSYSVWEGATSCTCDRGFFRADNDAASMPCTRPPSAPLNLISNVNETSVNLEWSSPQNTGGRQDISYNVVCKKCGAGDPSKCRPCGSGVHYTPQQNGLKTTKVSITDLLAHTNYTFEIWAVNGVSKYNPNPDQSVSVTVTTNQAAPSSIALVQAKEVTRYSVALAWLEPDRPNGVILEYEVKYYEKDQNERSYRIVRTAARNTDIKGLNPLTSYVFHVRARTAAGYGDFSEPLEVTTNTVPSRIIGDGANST
Assay: Human EphA4-human ligand binding inhibition ELISA of humanized antibodies (biotinylated Ephrin A5-Fc)
Settings: biotinylated human Ephrin A5-Fc 0.7 nM
In short: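 Wells coated with anti-alkaline phosphatase antibody captured human EphA4 extracellular region-SEAP-His at 10 nM. Biotinylated human Ephrin A5-Fc (0.7 nM) and serially diluted humanized antibody (0-3000 nM) were added together for 1 h at room temperature. Bound ligand was detected with HRP-streptavidin and TMBZ at A450.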

In order of rising IC50:
1. B6  2 nM
2. B9  2 nM
3. B5  2.3 nM
4. B10  2.4 nM
5. B7  2.5 nM
6. B3  2.9 nM
7. B4  3 nM
8. B1  3.3 nM
9. B8  3.7 nM
10. B11  3.7 nM
11. B2  5.3 nM

Molecular target: T2, human EphB1 (Homo sapiens, UniProt P54762)
T2 construct: a protein of the extracellular region of each human Eph receptor fused with the SEAP protein and the His tag; made in house; host or cells: Expi293F cells (culture supernatant)
T2 sequence (P54762 18-540 limits assumed): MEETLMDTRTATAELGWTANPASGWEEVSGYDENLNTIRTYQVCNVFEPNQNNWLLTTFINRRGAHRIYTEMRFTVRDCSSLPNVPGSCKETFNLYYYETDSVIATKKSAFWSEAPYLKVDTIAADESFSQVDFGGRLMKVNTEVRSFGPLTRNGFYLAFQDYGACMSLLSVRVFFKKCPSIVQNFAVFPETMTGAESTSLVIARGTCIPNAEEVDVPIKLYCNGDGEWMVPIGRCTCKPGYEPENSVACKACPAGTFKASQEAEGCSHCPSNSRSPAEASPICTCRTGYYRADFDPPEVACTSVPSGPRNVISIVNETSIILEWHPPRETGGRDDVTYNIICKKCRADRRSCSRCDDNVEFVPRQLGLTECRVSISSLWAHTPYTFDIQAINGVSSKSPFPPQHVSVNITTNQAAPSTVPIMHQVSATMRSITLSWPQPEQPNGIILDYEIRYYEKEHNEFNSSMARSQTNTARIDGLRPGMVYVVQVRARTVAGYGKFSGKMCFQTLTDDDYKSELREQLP
Assay: Selectivity ELISA of humanized antibodies for human Eph receptor
Type: binding
Settings: coated protein 1 nM
In short: (§1)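 Steps: coat anti-His antibody; block, then 1% BlockAce overnight at 4 °C; add Eph receptor extracellular region-SEAP-His (1 nM final) 1 h; add humanized antibody 1 h; add HRP anti-IgG 1 h; develop TMB; stop with acid; read 450 nm.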

In order of rising “hEphB1-SEAP-: absorbance at 450 nm, percentage with respect to hEphA4-SEAP-His as 100%” value:
1. B3  5.1%
2. B10  5.3%
3. B4  5.4%
4. B1  5.5%
5. B11  5.6%
6. B2  5.9%
7. B9  5.9%
8. B5  6.0%
9. B7  6.3%
10. B8  6.5%
11. B6  6.8%

Molecular target: T3, human EphA6 (Homo sapiens, UniProt Q9UF33)
T3 construct: a protein of the extracellular region of each human Eph receptor fused with the SEAP protein and the His tag; made in house; host or cells: Expi293F cells (culture supernatant)
T3 sequence (Q9UF33 23-550 limits assumed): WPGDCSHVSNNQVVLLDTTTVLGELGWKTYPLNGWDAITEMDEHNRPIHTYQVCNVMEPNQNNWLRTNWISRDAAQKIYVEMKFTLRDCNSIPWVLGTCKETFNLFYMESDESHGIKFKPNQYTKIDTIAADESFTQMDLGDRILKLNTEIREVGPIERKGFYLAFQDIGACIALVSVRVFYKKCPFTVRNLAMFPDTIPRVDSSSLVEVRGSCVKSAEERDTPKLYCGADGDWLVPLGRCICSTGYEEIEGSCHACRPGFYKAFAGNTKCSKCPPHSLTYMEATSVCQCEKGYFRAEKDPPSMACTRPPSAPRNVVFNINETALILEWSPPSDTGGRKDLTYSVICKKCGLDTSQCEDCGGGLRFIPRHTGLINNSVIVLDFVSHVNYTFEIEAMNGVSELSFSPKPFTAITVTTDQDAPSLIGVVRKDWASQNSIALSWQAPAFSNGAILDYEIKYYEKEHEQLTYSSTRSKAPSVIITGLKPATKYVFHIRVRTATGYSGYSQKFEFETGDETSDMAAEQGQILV
Assay: as above
Type: binding
Settings: coated protein 1 nM
In short: as §1

In order of rising “hEphA6-SEAP-: absorbance at 450 nm, percentage with respect to hEphA4-SEAP-His as 100%” value:
1. B9  8.3%
2. B7  8.4%
3. B8  8.6%
4. B5  8.7%
5. B4  9.0%
6. B11  9.7%
7. B2  9.9%
8. B6  9.9%
9. B1  10.0%
10. B3  10.2%
11. B10  10.8%

Source: patent publication US10428140B2, “Anti-EphA4 antibody” (EISAI R&D MANAGEMENT CO., LTD., priority 2015, dated 2019)
